Test results from publication PMC3312813 (Nature chemical biology, 2011).

Tested on: live HeLa cells
Settings: 8 µM Flu-HBS 3, HeLa cells, 2.5 hours, fixed, Z-section fluorescence microscopy

Structure (SMILES): CC[C@H](C)[C@H](NC(=O)CN1C/C=C/CCC(=O)N[C@@H](Cc2ccccc2)C(=O)N[C@@H](CCC(=O)O)C1=O)C(=O)N[C@@H](Cc1ccc(O)cc1)C(=O)N[C@@H](CCCNC(=N)N)C(=O)N[C@@H](CC(C)C)C(=O)N[C@@H](CCC(=O)O)C(=O)N[C@@H](CC(C)C)C(=O)N[C@@H](CC(C)C)C(=O)N[C@@H](CCCCN)C(=O)N[C@@H](C)C(=O)N[C@@H](CCC(=O)O)C(=O)N[C@@H](CCC(=O)O)C(=O)N[C@@H](C)C(=O)N[C@@H](CC(N)=O)C(=O)N[C@@H](CCCCNC(=O)c1ccc2c(c1)C(=O)OC21c2ccc(O)cc2Oc2cc(O)ccc21)C(N)=O [Flu-HBS 3]
- Cellular uptake at 4 °C as compared to 37 °C: significantly reduced
